Experimental data: patent US20240122983A1 (SHATTUCK LABS, published 2024)
Read-outs that look alike come from different tables or passages of the source.

T1: recombinant mouse mOX40 protein (mouse, UniProt P47741 20-211, limits assumed)
T1 sequence (looked up): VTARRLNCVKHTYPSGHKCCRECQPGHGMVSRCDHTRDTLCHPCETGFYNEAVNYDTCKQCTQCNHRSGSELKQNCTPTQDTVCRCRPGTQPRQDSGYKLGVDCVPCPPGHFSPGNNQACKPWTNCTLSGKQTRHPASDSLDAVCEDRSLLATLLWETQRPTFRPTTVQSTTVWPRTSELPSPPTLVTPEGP

B1: Standard(mCD40L) (ligand, mouse, UniProt P27548 112-260, looked up)
ligand chain: MQRGDEDPQIAAHVVSEANSNAASVLQWAKKGYYTMKSNLVMLENGKQLTVKREGLYYVYTQVTFCSNREPSSQRPFIVGLWLKPSSGSERILLKAANTHSSSQLCEQQSVHLGGVFELQAGASVFVNVTEASQVIHRVGFSSFGLLKL
notes: recombinant soluble protein; also called recombinant mCD40L protein
B2: recombinant mouse mFLT3 protein (receptor, UniProt Q00342 28-544, looked up)
chain: NQDLPVIKCVLISHENNGSSAGKPSSYRMVRGSPEDLQCTPRRQSEGTVYEAATVEVAESGSITLQVQLATPGDLSCLWVFKHSSLGCQPHFDLQNRGIVSMAILNVTETQAGEYLLHIQSEAANYTVLFTVNVRDTQLYVLRRPYFRKMENQDALLCISEGVPEPTVEWVLCSSHRESCKEEGPAVVRKEEKVLHELFGTDIRCCARNALGRESTKLFTIDLNQAPQSTLPQLFLKVGEPLWIRCKAIHVNHGFGLTWELEDKALEEGSYFEMSTYSTNRTMIRILLAFVSSVGRNDTGYYTCSSSKHPSQSALVTILEKGFINATSSQEEYEIDPYEKFCFSVRFKAYPRIRCTWIFSQASFPCEQRGLEDGYSISKFCDHKNKPGEYIFYAENDDAQFTKMFTLNIRKKPQVLANASASQASCSSDGYPLPSWTWKKCSDKSPNCTEEIPEGVWNKKANRKVFGQWVSSSTLNMSEAGKGLLVKCCAYNSMGTSCETIFLNSPGPFPFIQDNIS
B3: recombinant mouse mCD40 protein (receptor, UniProt P27512 20-193, looked up)
chain: LGQCVTCSDKQYLHDGQCCDLCQPGSRLTSHCTALEKTQCHPCDSGEFSAQWNREIRCHQHRHCEPNQGLRVKKEGTAESDTVCTCKEGQHCTSKDCEACAQHTPCIPGFGVMEMATETTDTVCHPCPVGFFSNQSSLFEKCYPWTSCEDKNLEVLQKGTSQTNVICGLKSRMR
B4: mFLT3L-Fc-GITRL chimeric protein (Fc fusion, murine;mouse (printed as mFc), UniProt P49772 27-189, looked up)
chain: GTPDCYFSHSPISSNFKVKFRELTDHLLKDYPVTVAVNLQDEKHCKALWSLFLAQRWIEQLKTVAGSKMQTLLEDVNTEIHFVTSCTFQPLPECLRFVQTNISHLLKDTCTQLLALKPCIGKACQNFSRCLEVQCQPDSSTLLPPRSPIALEATELPEPRPRQVPRDCGCKPCICTVPEVSSVFIFPPKPKDVLTITLTPKVTCVVVDISKDDPEVQFSWFVDDVEVHTAQTQPREEQFNSTFRSVSELPIMHQDWLNGKEFKCRVNSAAFPAPIEKTISKTKGRPKAPQVYTIPPPKEQMAKDKVSLTCMITDFFPEDITVEWQWNGQPAENYKNTQPIMNTNGSYFVYSKLNVQKSNWEAGNTFTCSVLHEGLHNHHTEKSLSHSPGKTSLKPTAIESCMVKFELSSSKWHMTSPKPHCVNTTSDGKLKILQSGTYLIYGQVIPVDKKYIKDNAPFVVQIYKKNDVLQTLMNDFQILPIGGVYELHAGDNIYLKFNSKDHIQKTNTYWGIILMPDLPFIS
notes: extracellular domain;domain: hinge-CH2-CH3 Fc domain; Expressed in 293 cells, purified on protein A; multimer when not reduced; also called murine FLT3L-Fc-GITRL; mFLT3-Fc-GITRL
B5: mFLT3L-Fc-CD40L chimeric protein (Fc fusion, murine;mouse (printed as mFc), UniProt P49772 27-189, looked up)
chain: GTPDCYFSHSPISSNFKVKFRELTDHLLKDYPVTVAVNLQDEKHCKALWSLFLAQRWIEQLKTVAGSKMQTLLEDVNTEIHFVTSCTFQPLPECLRFVQTNISHLLKDTCTQLLALKPCIGKACQNFSRCLEVQCQPDSSTLLPPRSPIALEATELPEPRPRQVPRDCGCKPCICTVPEVSSVFIFPPKPKDVLTITLTPKVTCVVVDISKDDPEVQFSWFVDDVEVHTAQTQPREEQFNSTFRSVSELPIMHQDWLNGKEFKCRVNSAAFPAPIEKTISKTKGRPKAPQVYTIPPPKEQMAKDKVSLTCMITDFFPEDITVEWQWNGQPAENYKNTQPIMNTNGSYFVYSKLNVQKSNWEAGNTFTCSVLHEGLHNHHTEKSLSHSPGKHRRLDKVEEEVNLHEDFVFIKKLKRCNKGEGSLSLLNCEEMRRQFEDLVKDITLNKEEKKENSFEMQRGDEDPQIAAHVVSEANSNAASVLQWAKKGYYTMKSNLVMLENGKQLTVKREGLYYVYTQVTFCSNREPSSQRPFIVGLWLKPSSGSERILLKAANTHSSSQLCEQQSVHLGGVFELQAGASVFVNVTEASQVIHRVGFSSFGLLKL
notes: extracellular domain;domain: hinge-CH2-CH3 Fc domain; Expressed in 293 cells, purified on protein A; multimer when not reduced; also called murine FLT3L-Fc-CD40L; mFLT3-Fc-CD40L
B6: mFLT3L-Fc-OX40L chimeric protein (Fc fusion, murine;mouse (printed as mFc), UniProt P49772 27-189, looked up)
chain: GTPDCYFSHSPISSNFKVKFRELTDHLLKDYPVTVAVNLQDEKHCKALWSLFLAQRWIEQLKTVAGSKMQTLLEDVNTEIHFVTSCTFQPLPECLRFVQTNISHLLKDTCTQLLALKPCIGKACQNFSRCLEVQCQPDSSTLLPPRSPIALEATELPEPRPRQVPRDCGCKPCICTVPEVSSVFIFPPKPKDVLTITLTPKVTCVVVDISKDDPEVQFSWFVDDVEVHTAQTQPREEQFNSTFRSVSELPIMHQDWLNGKEFKCRVNSAAFPAPIEKTISKTKGRPKAPQVYTIPPPKEQMAKDKVSLTCMITDFFPEDITVEWQWNGQPAENYKNTQPIMNTNGSYFVYSKLNVQKSNWEAGNTFTCSVLHEGLHNHHTEKSLSHSPGKSSSPAKDPPIQRLRGAVTRCEDGQLFISSYKNEYQTMEVQNNSVVIKCDGLYIIYLKGSFFQEVKIDLHFREDHNPISIPMLNDGRRIVFTVVASLAFKDKVYLTVNAPDTLCEHLQINDGELIVVQLTPGYCAPEGSYHSTVNQVPL
notes: extracellular domain;domain: hinge-CH2-CH3 Fc domain; Expressed in 293 cells, purified on protein A; multimer when not reduced; also called murine FLT3L-Fc-OX40L
B7: Standard mFlt3L (ligand)
chain: GTPDCYFSHSPISSNFKVKFRELTDHLLKDYPVTVAVNLQDEKHCKALWSLFLAQRWIEQLKTVAGSKMQTLLEDVNTEIHFVTSCTFQPLPECLRFVQTNISHLLKDTCTQLLALKPCIGKACQNFSRCLEVQCQPDSSTLLPPRSPIALEATELPEPRPRQ
notes: also called recombinant mFLT3L protein

Legend:
[1] = biological target: B3; assay: ELISA: plate-bound mCD40 (5ug/ml), detection anti-mCD40L (1:1000) and anti-goat IgG (1:10,000)
Text: (§1) Recombinant mFLT3L protein was used to generate a standard curve. […] A mouse whole IgG was used to generate a standard curve. […] Recombinant mCD40L protein was used to generate a standard curve.

[2] = biological target: B5; assay: Octet biolayer interferometry, loading mFLT3-his, analyte Conc. 142.9 nM, Full R2 0.9654
Text: (§2) Octet was used to determine on-/off-rates and binding affinities to the target receptors.

[3] = biological target: B5; assay: Octet biolayer interferometry, loading mCD40-his, analyte Conc. 142.9 nM, Full R2 0.995
Text: as §2

anti-mIgG [4] = biological target: T2, anti-mIgG; assay: ELISA: plate-bound anti-mIgG (10ug/ml), detection anti-mIgG-HRP (1:1000)
T2 construct: capture antibody of the mFc ELISA; also called Capture Ab: anti-mIgG(10ug/ml)
Text: Recombinant mFLT3L protein was used to generate a standard curve. […] A mouse whole IgG was used to generate a standard curve. […] Recombinant m4-1BBL protein was used to generate a standard curve.
(§3) Recombinant mFLT3L protein was used to generate a standard curve. […] A mouse whole IgG was used to generate a standard curve. […] Recombinant mOX40L protein was used to generate a standard curve.

anti-mIgG [5] = biological target: T2, anti-mIgG; assay: as above; remark: listed apart in the source
Text: Recombinant mFLT3L protein was used to generate a standard curve. […] A mouse whole IgG was used to generate a standard curve. […] Recombinant mGITRL protein was used to generate a standard curve.

[6] = biological target: B3; assay: Dual ELISA: capture anti-FLT3L (R&D AF427), detection with mCD40-His (Acro), tertiary anti-His/HRP (Abcam)
Procedure: (§4) Capture was performed with an anti-FLT3L antibody, followed by detection of the co-stimulatory domain with a his-tagged recombinant protein, and visualized using an anti-his/HRP antibody.

[7] = biological target: T1, recombinant mouse mOX40 protein; assay: Dual ELISA: capture anti-FLT3L (R&D AF427), detection with mOX40-His (Acro), tertiary anti-His/HRP (Abcam)
Procedure: as §4

anti-mIgG [8] = biological target: T2, anti-mIgG; assay: ELISA: plate-bound anti-mIgG (10ug/ml), detection anti-mIgG-HRP (1:1000); remark: listed apart in the source
Text: as §3

[9] = biological target: B2; assay: ELISA: plate-bound mFlt3 (10ug/ml), detection goat anti-mFlt3L (1:1000) and anti-goat IgG (10,000)
Text: as §1

Binder: B1
EC50 (read off the curve) [1]: ~10 nM

Binder: B2
Kd [2]: 15.2 nM | koff [2]: 0.00312 s⁻¹ | kon [2]: 205000 M⁻¹ s⁻¹

Binder: B3
Kd [3]: 14.2 nM | koff [3]: 0.000858 s⁻¹ | kon [3]: 61800 M⁻¹ s⁻¹

Binder: B4
EC50 (read off the curve) (anti-mIgG [4]): ~6 nM | EC50 (read off the curve) (anti-mIgG [5]): ~6 nM

Binder: B5
EC50 (read off the curve) [6]: ~1 nM

Binder: B6
EC50 (read off the curve) (anti-mIgG [4]): ~20 nM | EC50 (read off the curve) [7]: ~1 nM | EC50 (read off the curve) (anti-mIgG [8]): ~20 nM

Binder: B7
binding result [9]: binds
